What all share (assay): SPR; 5 mM Mg2+; SPR (Biacore 8K, CM5 chip, protein immobilized): DPBS with 5 mM Mg2+, 25 C; aptamer 0-1000 nM; pH not stated
Conditions in all cases: protein: commercial
On the technique in general: Surface plasmon resonance follows binding to a sensor surface in real time, without labels.

The target in data set [1] is complement factor H-related protein 1 (human, UniProt Q03591 19-330).
The target in data set [2] is T1, histidine-rich glycoprotein (human, UniProt P04196 19-525).
T1 sequence: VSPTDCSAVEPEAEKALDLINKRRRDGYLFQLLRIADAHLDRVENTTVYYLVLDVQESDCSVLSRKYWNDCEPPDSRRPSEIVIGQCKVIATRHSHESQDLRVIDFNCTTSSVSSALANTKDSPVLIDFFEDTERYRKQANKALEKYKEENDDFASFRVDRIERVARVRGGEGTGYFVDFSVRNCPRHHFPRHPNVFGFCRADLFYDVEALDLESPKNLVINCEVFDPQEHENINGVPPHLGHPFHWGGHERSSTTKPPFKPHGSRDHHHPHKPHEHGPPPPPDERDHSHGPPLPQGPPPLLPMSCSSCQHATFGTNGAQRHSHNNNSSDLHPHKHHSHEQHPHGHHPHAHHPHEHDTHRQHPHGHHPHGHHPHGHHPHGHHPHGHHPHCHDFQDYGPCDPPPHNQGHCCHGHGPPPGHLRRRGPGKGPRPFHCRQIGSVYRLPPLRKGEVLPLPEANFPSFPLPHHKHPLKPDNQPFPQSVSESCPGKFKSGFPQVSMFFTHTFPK

Data set [3] addresses complement C1q subcomponent subunit B (human, UniProt P02746 28-253).
Another data set deals with T2, serum amyloid A2 (human, UniProt P0DJI9 19-122).
T2 sequence: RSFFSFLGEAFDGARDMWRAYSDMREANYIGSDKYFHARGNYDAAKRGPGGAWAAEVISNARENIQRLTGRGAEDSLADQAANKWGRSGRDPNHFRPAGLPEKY

In data set [4] the target is T3, vitamin K-dependent protein S (human, UniProt P07225 42-676).
T3 sequence: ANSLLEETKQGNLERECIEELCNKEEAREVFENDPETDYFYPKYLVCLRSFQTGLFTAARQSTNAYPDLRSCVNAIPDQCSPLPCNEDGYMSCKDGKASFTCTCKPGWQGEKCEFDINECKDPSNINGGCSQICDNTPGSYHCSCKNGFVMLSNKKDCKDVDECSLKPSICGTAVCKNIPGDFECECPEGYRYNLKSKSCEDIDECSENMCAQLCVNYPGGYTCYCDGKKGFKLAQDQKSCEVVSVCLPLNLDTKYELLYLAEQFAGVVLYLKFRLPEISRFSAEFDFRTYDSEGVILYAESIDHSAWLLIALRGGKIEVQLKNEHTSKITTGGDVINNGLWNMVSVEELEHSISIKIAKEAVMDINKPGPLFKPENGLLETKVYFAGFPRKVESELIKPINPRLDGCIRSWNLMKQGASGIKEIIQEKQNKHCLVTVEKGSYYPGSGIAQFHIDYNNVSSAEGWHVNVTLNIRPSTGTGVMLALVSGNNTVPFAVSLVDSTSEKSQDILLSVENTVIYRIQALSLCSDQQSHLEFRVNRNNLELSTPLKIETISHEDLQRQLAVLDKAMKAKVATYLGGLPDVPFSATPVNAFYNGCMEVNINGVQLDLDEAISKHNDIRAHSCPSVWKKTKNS

For the next data set, the target named is apolipoprotein C-III (human, UniProt P02656 21-99).
Chain of apolipoprotein C-III (P02656 21-99): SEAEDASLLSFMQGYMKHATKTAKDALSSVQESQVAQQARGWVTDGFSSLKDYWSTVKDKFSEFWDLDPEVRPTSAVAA

Chain of complement factor H-related protein 1 (Q03591 19-330): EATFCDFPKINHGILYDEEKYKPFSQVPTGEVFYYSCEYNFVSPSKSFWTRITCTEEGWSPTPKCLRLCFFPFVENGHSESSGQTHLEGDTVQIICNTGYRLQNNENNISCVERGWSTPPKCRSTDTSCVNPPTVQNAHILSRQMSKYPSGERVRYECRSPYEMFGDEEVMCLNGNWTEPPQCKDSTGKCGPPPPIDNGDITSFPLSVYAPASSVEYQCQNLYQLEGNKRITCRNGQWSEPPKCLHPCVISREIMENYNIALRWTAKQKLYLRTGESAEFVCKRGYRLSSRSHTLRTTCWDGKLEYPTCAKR
Chain of complement C1q subcomponent subunit B (P02746 28-253): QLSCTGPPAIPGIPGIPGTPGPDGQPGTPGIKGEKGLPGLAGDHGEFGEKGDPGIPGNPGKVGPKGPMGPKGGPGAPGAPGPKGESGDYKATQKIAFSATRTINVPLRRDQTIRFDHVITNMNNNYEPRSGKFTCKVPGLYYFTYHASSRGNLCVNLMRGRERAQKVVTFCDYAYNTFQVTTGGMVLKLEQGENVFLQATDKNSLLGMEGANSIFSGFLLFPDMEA

B1: CRC5 (ssDNA)
DNA: CAGCACCGTCAACTGAATCCTGCGGGCGGGTGGGTGGTTGGATTCTTGGTGATGCGATGGAGATGT
For the molecule B1, the binding result in data set [1] is reported as “binds”.

B2: OV8 (ssDNA)
DNA: CAGCACCGTCAACTGAATGAGTCGCGGGTGGGTGGGTGGCCTTGCTCGGTGATGCGATGGAGATGT
B2: the binding result in data set [2] is listed as “binds”.

B3: OV2 (ssDNA)
DNA: CAGCACCGTCAACTGAATGTGGGTGGGTGGGTGGTAAGTTGTGCCGACGTGATGCGATGGAGATGT
Take B3: the binding result in data set [3] is on record as “binds”.

B4: OV10 (ssDNA)
DNA: CAGCACCGTCAACTGAATGAGGTGGGAGGGAGGGGTTGACCTTGCGTGGTGATGCGATGGAGATGT
With B4, the binding result with serum amyloid A2 was “binds”.

B5: CRC7 (ssDNA)
DNA: CAGCACCGTCAACTGAATCGGCGGGTGGGTGGGCGGAGATTTAACGTCGTGATGCGATGGAGATGT
Consider B5, for which the binding result in data set [4] is “binds”.

B6: CRC4 (ssDNA)
DNA: CAGCACCGTCAACTGAATGCTGAGGGCGGGTGGGTGGCACATTCGATGGTGATGCGATGGAGATGT
Take B6: in the data set with apolipoprotein C-III, the binding result is reported as “binds”.
